From patent US12371817 (TEXAS A AND M UNIVERSITY SYSTEM, dated 2025)
Numbered stars: 1 amine (or outer) side, 2 acyl side, 3 side chain; on linkers, the order of the positions; unused ones are H or OH. Square brackets hold non-standard residues; d marks the D form. Ends that are not written are not given here. * marks the point of attachment. thBuK = N^ε-thiobutyryl-lysine, CCCC(=S)NCCCC[C@H](N[*:1])C(=O)[*:2]; Crotonyl(E) = C/C=C/C(=O)*; Abu = CC[C@H](N)C(=O)O

Experiments:
[1] = target: T1, recombinant human sirtuin 2 (His6-SIRT2) (human, UniProt Q8IXJ6 1-389); assay: deacetylase inhibition
T1 chain: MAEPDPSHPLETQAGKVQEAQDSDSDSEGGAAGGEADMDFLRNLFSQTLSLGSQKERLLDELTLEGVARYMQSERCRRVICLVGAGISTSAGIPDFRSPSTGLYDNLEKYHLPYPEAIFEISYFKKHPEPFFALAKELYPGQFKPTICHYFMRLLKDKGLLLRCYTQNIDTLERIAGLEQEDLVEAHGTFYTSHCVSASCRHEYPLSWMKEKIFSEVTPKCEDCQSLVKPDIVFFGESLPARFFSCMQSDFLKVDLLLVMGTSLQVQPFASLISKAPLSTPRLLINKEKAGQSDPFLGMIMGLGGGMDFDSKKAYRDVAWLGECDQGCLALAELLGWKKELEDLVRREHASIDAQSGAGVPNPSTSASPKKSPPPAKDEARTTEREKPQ

[2] = target: T2, human sirtuin 3 (GST-SIRT3) (human, UniProt Q9NTG7 102-399); assay: cell-based or functional assay
T2 sequence (looked up): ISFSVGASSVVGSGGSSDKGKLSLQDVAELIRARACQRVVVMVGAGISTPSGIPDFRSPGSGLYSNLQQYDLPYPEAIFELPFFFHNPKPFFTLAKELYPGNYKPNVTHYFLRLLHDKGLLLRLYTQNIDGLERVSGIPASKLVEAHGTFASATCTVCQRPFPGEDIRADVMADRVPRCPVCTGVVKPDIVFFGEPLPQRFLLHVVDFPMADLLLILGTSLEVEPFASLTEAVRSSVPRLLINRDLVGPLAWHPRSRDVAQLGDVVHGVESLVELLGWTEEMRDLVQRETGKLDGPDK

[3] = target: T3, recombinant human sirtuin 2 (His6-SIRT2) (human, UniProt Q8IXJ6 1-389); assay: cell-based or functional assay
T3 sequence (looked up): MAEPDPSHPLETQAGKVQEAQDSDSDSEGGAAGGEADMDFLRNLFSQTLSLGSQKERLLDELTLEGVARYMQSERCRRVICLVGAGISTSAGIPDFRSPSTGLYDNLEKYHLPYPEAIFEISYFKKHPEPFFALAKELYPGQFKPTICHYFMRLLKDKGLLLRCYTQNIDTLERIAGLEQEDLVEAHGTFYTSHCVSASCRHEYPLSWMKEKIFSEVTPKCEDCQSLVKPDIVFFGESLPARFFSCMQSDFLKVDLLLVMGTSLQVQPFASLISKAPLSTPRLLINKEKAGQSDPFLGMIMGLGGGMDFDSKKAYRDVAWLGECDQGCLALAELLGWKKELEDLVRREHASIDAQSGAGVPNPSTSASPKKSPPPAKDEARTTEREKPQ

[4] = target: T4, human sirtuin 1 (His6-SIRT1) (human, UniProt Q96EB6 1-747); assay: cell-based or functional assay
T4 sequence (looked up): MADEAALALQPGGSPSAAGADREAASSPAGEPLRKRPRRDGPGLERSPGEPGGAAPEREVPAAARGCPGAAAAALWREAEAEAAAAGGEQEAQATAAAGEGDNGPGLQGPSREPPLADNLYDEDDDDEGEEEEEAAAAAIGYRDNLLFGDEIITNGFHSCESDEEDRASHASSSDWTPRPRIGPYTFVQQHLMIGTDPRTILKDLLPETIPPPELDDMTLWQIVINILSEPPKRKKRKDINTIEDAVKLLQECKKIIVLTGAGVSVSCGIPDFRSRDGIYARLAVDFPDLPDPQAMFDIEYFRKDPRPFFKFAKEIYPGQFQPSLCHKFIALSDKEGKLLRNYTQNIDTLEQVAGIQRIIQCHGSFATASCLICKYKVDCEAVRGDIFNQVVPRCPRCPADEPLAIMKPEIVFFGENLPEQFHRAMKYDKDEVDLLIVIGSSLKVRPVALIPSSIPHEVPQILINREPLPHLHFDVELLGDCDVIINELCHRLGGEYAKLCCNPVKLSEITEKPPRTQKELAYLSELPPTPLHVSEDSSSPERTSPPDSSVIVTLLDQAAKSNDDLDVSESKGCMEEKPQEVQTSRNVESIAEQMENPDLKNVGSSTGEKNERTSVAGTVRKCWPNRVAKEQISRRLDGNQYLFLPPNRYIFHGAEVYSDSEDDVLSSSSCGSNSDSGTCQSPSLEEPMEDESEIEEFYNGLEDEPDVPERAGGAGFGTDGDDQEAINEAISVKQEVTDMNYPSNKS

ENL = target: T5, ENL (UniProt Q03111 1-148, limits assumed); assay: fluorescence polarization, 5-FAM-conjugated peptide binding to ENL
T5 construct: also called ENL protein
T5 sequence (looked up): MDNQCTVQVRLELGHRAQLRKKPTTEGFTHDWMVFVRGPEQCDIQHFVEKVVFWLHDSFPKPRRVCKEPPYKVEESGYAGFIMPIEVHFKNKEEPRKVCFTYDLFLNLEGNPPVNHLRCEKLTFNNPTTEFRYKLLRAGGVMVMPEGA

B1: S2P07 (NH2-CTFXVPT-NH2), synthesized with N^ε-thiobutyryl-lysine (thBuK) in place of BuK (peptide)
peptide: H-CTF[thBuK]VPT-NH2
SMILES: CCCC(=S)NCCCC[C@H](NC(=O)[C@H](Cc1ccccc1)NC(=O)[C@@H](NC(=O)[C@@H](N)CS)[C@@H](C)O)C(=O)N[C@H](C(=O)N1CCC[C@H]1C(=O)N[C@H](C(N)=O)[C@@H](C)O)C(C)C
B1 showed an IC50 [1] of 101 nM.

B2: S2P03 (NH2-CTVXTSL-NH2), synthesized with N^ε-thiobutyryl-lysine (thBuK) in place of BuK (peptide)
peptide: H-CTV[thBuK]TSL-NH2
SMILES: CCCC(=S)NCCCC[C@H](NC(=O)[C@@H](NC(=O)[C@@H](NC(=O)[C@@H](N)CS)[C@@H](C)O)C(C)C)C(=O)N[C@H](C(=O)N[C@@H](CO)C(=O)N[C@@H](CC(C)C)C(N)=O)[C@@H](C)O
Binder B2 has an IC50 [1] of 68 nM.

B3: S2P04 (Abu)-5 (NH2-ZTVXI-NH2, Z is aminobutyric acid) (peptide)
peptide: H-[Abu]TV[thBuK]I-NH2
SMILES: CCCC(=S)NCCCC[C@H](NC(=O)[C@@H](NC(=O)[C@@H](NC(=O)[C@@H](N)CC)[C@@H](C)O)C(C)C)C(=O)N[C@H](C(N)=O)[C@@H](C)CC
B3 gave an IC50 [1] of 119 nM.

B4: Ac-S2P04-5 (Ac-CTVXI-NH2) (peptide)
peptide: Ac-CTV[thBuK]I-NH2
SMILES: CCCC(=S)NCCCC[C@H](NC(=O)[C@@H](NC(=O)[C@@H](NC(=O)[C@H](CS)NC(C)=O)[C@@H](C)O)C(C)C)C(=O)N[C@H](C(N)=O)[C@@H](C)CC
Binder B4 has an IC50 [1] of 191 nM.

B5: S2P04 (NH2-TCTVXIG-NH2), synthesized with N^ε-thiobutyryl-lysine (thBuK) in place of BuK (peptide)
peptide: H-TCTV[thBuK]IG-NH2
SMILES: CCCC(=S)NCCCC[C@H](NC(=O)[C@@H](NC(=O)[C@@H](NC(=O)[C@H](CS)NC(=O)[C@@H](N)[C@@H](C)O)[C@@H](C)O)C(C)C)C(=O)N[C@H](C(=O)NCC(N)=O)[C@@H](C)CC
With B5 the IC50 [1] was 92 nM, the “fold by which SIRT2 is inhibited more potently than SIRT3” value [2] was 152 fold and the “fold more potent than TB (sirtuin inhibition)” value [2] was at least 33 fold. For the same binder, the “fold more potent than TB (sirtuin inhibition)” value [3] was at least 33 fold, the “fold by which SIRT2 is inhibited more potently than SIRT1” value [4] was 2.7 fold and the “fold more potent than TB (sirtuin inhibition)” value [4] was at least 33 fold.

B6: S2P04-5, truncated version of S2P04 containing only the five residues of the consensus motif (peptide)
peptide: CTV[thBuK]I-NH2
modifications: N-terminus assumed
SMILES: CCCC(=S)NCCCC[C@H](NC(=O)[C@@H](NC(=O)[C@@H](NC(=O)[C@@H](N)CS)[C@@H](C)O)C(C)C)C(=O)N[C@H](C(N)=O)[C@@H](C)CC
In the case of B6, the “IC50, inhibition of SIRT2 (fluorogenic sirtuin substrate assay)” value [3] is reported as 136 nM.

Binder DIWCFK(Crotonyl(E))G (also: 5-FAM conjugated, site not given here) [5-FAM-conjugated 7CrKEnl1] has a Kd (ENL) of 94 nM.

Work on SK(Crotonyl(E))DIWCF (also: 5-FAM conjugated, site not given here) [5-FAM-conjugated 7CrKEnl2] yielded a Kd (ENL) of 90 nM.
